Laboratory results reported in patent US20210388087A1 (Chugai, published 2021).

T1: Human CD3eg linker (human)
T1 construct: Single-chain construct; also called recombinant human CD3
T1 chain: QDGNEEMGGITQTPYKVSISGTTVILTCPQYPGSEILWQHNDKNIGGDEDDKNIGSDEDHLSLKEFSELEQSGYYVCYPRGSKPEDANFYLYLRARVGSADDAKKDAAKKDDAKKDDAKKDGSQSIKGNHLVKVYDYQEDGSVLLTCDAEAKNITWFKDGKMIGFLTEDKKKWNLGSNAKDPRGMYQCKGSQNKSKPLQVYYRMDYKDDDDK


Molecular target: T1, Human CD3eg linker
Experiment: SPR; fold vs parent H183/L072

Binder | fold change of affinity [fold]
H183/L072 VL L27bS (antibody, name in Kabat numbering, V domains shown) VH: QVQLVESGGGLVQPGRSLRLSCAASGFTFSNAWMHWVRQAPGKGLEWVAQIKDKGNAYAAYYAPSVKGRFTISRDDSKNSIYLQMNSLKTEDTAVYYCHYVHYASASTVLPAFGVDAWGQGTTVTVSS VL: DIVMTQSPLSLPVTPGEPASISCQASQESVHMNRNTYLHWYQQKPGQAPRLLIYKVSNRFPGVPDRFSGSGSGTDFTLKISRVEAEDVGVYYCAQGTSVPFTFGQGTKLEIK | 0
H183/L072 VL L33F (antibody, name in Kabat numbering, V domains shown) VH: QVQLVESGGGLVQPGRSLRLSCAASGFTFSNAWMHWVRQAPGKGLEWVAQIKDKGNAYAAYYAPSVKGRFTISRDDSKNSIYLQMNSLKTEDTAVYYCHYVHYASASTVLPAFGVDAWGQGTTVTVSS VL: DIVMTQSPLSLPVTPGEPASISCQASQELVHMNRNTYFHWYQQKPGQAPRLLIYKVSNRFPGVPDRFSGSGSGTDFTLKISRVEAEDVGVYYCAQGTSVPFTFGQGTKLEIK | 1.1
H183/L072 VL L33D (antibody, name in Kabat numbering, V domains shown) VH: QVQLVESGGGLVQPGRSLRLSCAASGFTFSNAWMHWVRQAPGKGLEWVAQIKDKGNAYAAYYAPSVKGRFTISRDDSKNSIYLQMNSLKTEDTAVYYCHYVHYASASTVLPAFGVDAWGQGTTVTVSS VL: DIVMTQSPLSLPVTPGEPASISCQASQELVHMNRNTYDHWYQQKPGQAPRLLIYKVSNRFPGVPDRFSGSGSGTDFTLKISRVEAEDVGVYYCAQGTSVPFTFGQGTKLEIK | 0
H183/L072 VL L27bV (antibody, name in Kabat numbering, V domains shown) VH: QVQLVESGGGLVQPGRSLRLSCAASGFTFSNAWMHWVRQAPGKGLEWVAQIKDKGNAYAAYYAPSVKGRFTISRDDSKNSIYLQMNSLKTEDTAVYYCHYVHYASASTVLPAFGVDAWGQGTTVTVSS VL: DIVMTQSPLSLPVTPGEPASISCQASQEVVHMNRNTYLHWYQQKPGQAPRLLIYKVSNRFPGVPDRFSGSGSGTDFTLKISRVEAEDVGVYYCAQGTSVPFTFGQGTKLEIK | 1.7
H183/L072 VL L27bT (antibody, name in Kabat numbering, V domains shown) VH: QVQLVESGGGLVQPGRSLRLSCAASGFTFSNAWMHWVRQAPGKGLEWVAQIKDKGNAYAAYYAPSVKGRFTISRDDSKNSIYLQMNSLKTEDTAVYYCHYVHYASASTVLPAFGVDAWGQGTTVTVSS VL: DIVMTQSPLSLPVTPGEPASISCQASQETVHMNRNTYLHWYQQKPGQAPRLLIYKVSNRFPGVPDRFSGSGSGTDFTLKISRVEAEDVGVYYCAQGTSVPFTFGQGTKLEIK | 0.6

The next lines start with the values.

fold change of affinity [fold] | Binder
0 | H183/L072 VL L33G (antibody, name in Kabat numbering, V domains shown) VH: QVQLVESGGGLVQPGRSLRLSCAASGFTFSNAWMHWVRQAPGKGLEWVAQIKDKGNAYAAYYAPSVKGRFTISRDDSKNSIYLQMNSLKTEDTAVYYCHYVHYASASTVLPAFGVDAWGQGTTVTVSS VL: DIVMTQSPLSLPVTPGEPASISCQASQELVHMNRNTYGHWYQQKPGQAPRLLIYKVSNRFPGVPDRFSGSGSGTDFTLKISRVEAEDVGVYYCAQGTSVPFTFGQGTKLEIK
0 | H183/L072 VL L33E (antibody, name in Kabat numbering, V domains shown) VH: QVQLVESGGGLVQPGRSLRLSCAASGFTFSNAWMHWVRQAPGKGLEWVAQIKDKGNAYAAYYAPSVKGRFTISRDDSKNSIYLQMNSLKTEDTAVYYCHYVHYASASTVLPAFGVDAWGQGTTVTVSS VL: DIVMTQSPLSLPVTPGEPASISCQASQELVHMNRNTYEHWYQQKPGQAPRLLIYKVSNRFPGVPDRFSGSGSGTDFTLKISRVEAEDVGVYYCAQGTSVPFTFGQGTKLEIK
0.6 | H183/L072 VL L33A (antibody, name in Kabat numbering, V domains shown) VH: QVQLVESGGGLVQPGRSLRLSCAASGFTFSNAWMHWVRQAPGKGLEWVAQIKDKGNAYAAYYAPSVKGRFTISRDDSKNSIYLQMNSLKTEDTAVYYCHYVHYASASTVLPAFGVDAWGQGTTVTVSS VL: DIVMTQSPLSLPVTPGEPASISCQASQELVHMNRNTYAHWYQQKPGQAPRLLIYKVSNRFPGVPDRFSGSGSGTDFTLKISRVEAEDVGVYYCAQGTSVPFTFGQGTKLEIK
